We go through 15 sequences from the DeepSol protein solubility set.

A short description of the data set: soluble on expression in E. coli; label from the status in PepcDB or PDB records.
With “MAVKRPVRVLVNMDGVLADFESGLLQGFRRRFPEEPHVPLEQRRGFLANEQYGALRPDLAEKVASVYESPGFFLNLEPIPGALDALREMNDMKDTEVFICTTPLLKYDHCVGEKYRWVEQNLGPEFVERIILTRDKTVVMGDLLIDDKDNIQGLEETPSWEHILFTCCHNQHLALPPTRRRLLSWSDNWRGIIESKRASL”, the “soluble on expression in E. coli” value is listed as “soluble”. With “MAVLAVVLLLACLERAVAQTFGCSNTKINDQARKMFYDAHNDARRSMAKGLEPNKCGLLSGGKNVYELNWDCEMEAKAQEWADGCPSSFQTFDPTWGQNYATYMGSIADPLPYASMAVNGWWSEIRTVGLTDPDNKYTNSAMFRFANMANGKASAFGCAYALCAGKLSINCIYNKIGYMTNAIIYEKGDACTSDAECTTYSDSQCKNGLCYKAPQAPVVETFTMCPSVTDQSDQARQNFLDTHNKLRTSLAKGLEADGIAAGAFAPMAKQMPKLKYSCTVEANARTWAKGCLYQHSTSAQRPGLGENLYMISINNMPKIQTAEDSSKAWWSELKDFGVGSDNILTQAVFDRGVGHYTQMAWEGTTEIGCFVENCPTFTYSVCQYGPAGNYMNQLIYTKGSPCTADADCPGTQTCSVAEALCVIP”, the “soluble on expression in E. coli” value is recorded as “not soluble”. “MAVLCGVCGIKEFKYKCPRCLVQTCSLECSKKHKTRDNCSGQTHDPKEYISSEALKQADDDKHERNAYVQRDYNYLTQLKRMVHVQKMDARMKNKRVLGPVGGHNSNFKKRRYDIDEDDRDSTECQRIIRRGVNCLMLPKGMQRSSQNRSKWDKTMDLFVWSVEWILCPMQEKGEKKELFKHVSHRIKETDFLVQGMGKNVFQKCCEFYRLAGTSSCIEGEDGSETKEERTQILQKSGLKFYTKTFPYNTTHIMDSKKLVELAIHEKCIGELLKNTTVIEFPTIFVAMTEADLPEGYEVLHQEPRPLEHTSTLNKFIDNAREEEDAEEDSQPTEEPVQKETQDASDSDSDSDDDYNPGLSMDFLTA”: the “soluble on expression in E. coli” value is “not soluble”. In the case of “MAVTEVKLNAPLAVGVWAKMLNTETSKALPIAPLMGKSKNSIIQVLDMLEKSAGDAVTSGLRVQLMGDGVSEGQTLEGNEEALQFMNEKVHINELTHAVRIKYEGSIDQQRIPFSLRQEAKDGLVDWYADRLSLMFFIQAAGYTAPWMQFEGRTITLKPVHYGFNAPSEPSKLRVIRPAKKKTDEELTKEDVFTLDLIDQAVERAKLANPRLRPVRVDGKSAYVMYLHPIQVTQLRTNTKSGQWLDITKAAYDGSGAKNPIFNGSLGMYNGVILREAEHVPNGVNSKTQEPVPSVRRAVLLGAQSIIMAYGRIGNGATGSNEENSETRYKLVEELFDYQREFGLAAKTIIGMKKSRYTLPHSDQGGQDFGTIVIPSFAEAS”, the “soluble on expression in E. coli” value was “not soluble”.

As for “MAVTNVAELNALVERVKKAQREYASFTQEQVDKIFRAAALAAADARIPLAKMAVAESGMGIVEDKVIKNHFASEYIYNAYKDEKTCGVLSEDDTFGTITIAEPIGIICGIVPTTNPTSTAIFKSLISLKTRNAIIFSPHPRAKEATNKAADIVLQAAIAAGAPKDLIGWIDQPSVELSNALMHHPDINLILATGGPGMVKAAYSSGKPAIGVGAGNTPVVIDETADIKRAVASVLMSKTFDNGVICASEQSVVVVDSVYDAVRERFASHGGYMLQGQELKAVQNVILKNGALNAAIVGQPAYKIAELAGFSVPETTKILIGEVTVVDESEPFAHEKLSPTLAMYRAKDFEEAVEKAEKLVAMGGIGHTSCLYTDQDNQPERVAYFGQMMKTARILINTPASQGGIGDLYNFKLAPSLTLGCGSWGGNSISENVGPKHLINKKTVAKRAENMLWHKLPKSIYFRRGSLPIALDEVITDGHKRALIVTDRFLFNNGYADQITSVLKAAGVETEVFFEVEADPTLSVVRKGAELANSFKPDVIIALGGGSPMDAAKIMWVMYEHPETHFEELALRFMDIRKRIYKFPKMGVKAKMIAVTTTSGTGSEVTPFAVVTDDATGQKYPLADYALTPDMAIVDANLVMDMPKSLCAFGGLDAVTHALEAYVSVLASEFSDGQALQALKLLKENLPASYHEGSKNPVARERVHSAATIAGIAFANAFLGVCHSMAHKLGSQFHIPHGLANALLICNVIRYNANDNPTKQTAFSQYDRPQARRRYAEIADHLGLSAPGDRTAAKIEKLLAWLESIKAELGIPKSIREAGVQEADFLAHVDKLSEDAFDDQCTGANPRYPLISELKQILLDTYYGRDFTEGEVAAKKDVVAAPKAEKKAKKSA”, the “soluble on expression in E. coli” value is recorded as “soluble”. Consider “MAVYRNVQVNFWQDDFVLDLTPEERYFYVYLLTCSKTTQCGIFPFPKRLAEMETGYNRETVDKLVQRFVDYGKILYDADTRELFVLNWLRYNPVTNTNVEKCVLRELKSVKNKEFVHMFLQKCVEEELNVPMLLAHFGMPSDLAVDDVEPVCEETEAEEEVIEEETGSRVFSFYEQHFGSLSPFAVEELSAWMEDLSEELVLKALQIAFENNKRTVAYVKGILRGWHGKGFTKVCEVEADTAKFRKKESSVSTGETEEFLARCEEWEKNAPSEEELQRFLAERGWRP”, for which the “soluble on expression in E. coli” value is “not soluble”.

Regarding “MAYKYDRDLEFLKQLESSDLLDLFEVLVFGKDGEKRHNEKLTSSIEYKRHGDDYAKYAERIAEELQYYGSNSFASFIKGEGVLYKEILCDVCDKLKVNYNKKTETTLIEQNMLSKILERSLEEMDDEEVKEMCDELSIKNTDNLNRQALSAATLTLFKMGGFKSYQLAVIVANAVAKTILGRGLSLAGNQVLTRTLSFLTGPVGWIITGVWTAIDIAGPAYRVTIPACIVVATLRLKTQQANGDKKSLQIESI”, the “soluble on expression in E. coli” value is listed as “not soluble”.

Consider “MAYTEEQIENIKTRILTALEEVIDPELGIDIVNLGLIYEIRFDGDTGQTEIDMTLTTMGCPLADLLTDQIYDAMIEVPEVTDTEVKLVWYPAWTVEKMSRYARIALGIK”, for which the “soluble on expression in E. coli” value is listed as “not soluble”. “MAYWRKWRTSMNLEALPKYYSPKSPKLSDAAPATGSGGLTITDVMAAQGMVQSKAPLGFALFLAKAGVQDPQFAIEGLLNYAMALDNPTLNKLSEEIRLQIIPYLVSFAFADYSRSAASKARCEPCAGTGFHNVLREVVKYSRSGESVIKEEWVKELCQHCHGKGEVSTACRGCKGKGIVLDEKRTRLHGAPVYKICGRCNGNRFSRLPTTLARCHVQKLVPDLTDYQWYKGYADVIDKLVTKCWQEEAYAEVQLRKVTR”: the “soluble on expression in E. coli” value was “not soluble”. “MCGRYALFSTPETLRETFGLTTAPVEPTYNAAPSQSLPVILDTEPTETVRARWGLVPSWSDGPQSAPDPINARAETLTETRHFQAAYEHRRCLVPVDGFYEWRDEDGATVPYFVSRTDGAPFLLAGLWETWTPEQTQTGLGEFTGDDGPSRDPETVRSFTVVTTQPNAFLADYHHRMAVVLTPAQGQRWLTDDDPTDLFTPGAFDLQAWRVSTAVNDPTVDRPALVEPALEHHHHHH”: the “soluble on expression in E. coli” value is “not soluble”. To “MCKHCGAAVLFVKDDRWHVFDAKPSEEGEWRIRSRWAANVAAEKTTVTRLTESKLRRARLMGEPLFRPHFQTCPANPRAKILQEKRRHG” belongs “not soluble”; to “MCMRRTLYRLMIELTNGRFTSYILRKFAQSRLSSIIIPSYVKVFQINQDEMEKGLKEYRTLHELFTRKLKEGKRSIDTDASSIVSPVDGVFADYGPIEDAKTFDIKGKRYSIVDMLGNEERAQRYAGGTYMVIYLSPSHYHRIHSPLSGSVTERFVLGRKSYPVNAAGMEYGKEPLSKNYRSVTEVNSDGEHMALVKVGAMFVNSIELLHERDTVQKGEEMAYFTFGSTVVLLFEKDMIEVVQELKSGQELRLGEKIATRLAHKMAGDPLEHHHHHH”, “soluble”; to “MCPGVMGVGSTQSIVLVPGFPKPSTMNVQWKAEGAASQKDASTHKDWSSQVSSITCKPEKPETLPLGHFINGDFIVIIPAGGRALLSATGNAL”, “not soluble”. To “MCQMPCQFSWPYTHYFTQTKNKEKILNKLIVFTGGPGAGKTSVIEQLKTQGFICAPETGRHVIQMQVANHGSALPWNDKQAFRDEMTKEEVSNYRSFNVRQGDVFFDRSIVDVYGYSKLEQLPISHELITHCQTLRYHSQVFIFPPWASIFSNDEERKQDFSEAVATYQQMVDAYHKFGYQLIEVPKMSVEDRVAFILGSVIELEHHHHHH” belongs “soluble”. Take “MCRIPVMIVSQPKQLKALSDPTRIKILELLREHPMSVSEIAERLGRDKSTVYRHIKALEDAGLVEVVEKIGNEVVYGRVAYVFLLVPNSNKEIEDLRRAYLSREVEKLIEVLEDSGIRIRDKEKFRSIVQKVFRDIENQSQHILSRLMNSSFDEIALIHILNFLTFLYSHKYVEESKQLFKLLDI”: the “soluble on expression in E. coli” value is “soluble”.
